Reference: US20170022281A1 (AbbVie / Abbott, published 2017)

T1: mouse PRLR on Baf3-mPRLR cells (mouse, UniProt Q08501 20-608)
T1 sequence (looked up): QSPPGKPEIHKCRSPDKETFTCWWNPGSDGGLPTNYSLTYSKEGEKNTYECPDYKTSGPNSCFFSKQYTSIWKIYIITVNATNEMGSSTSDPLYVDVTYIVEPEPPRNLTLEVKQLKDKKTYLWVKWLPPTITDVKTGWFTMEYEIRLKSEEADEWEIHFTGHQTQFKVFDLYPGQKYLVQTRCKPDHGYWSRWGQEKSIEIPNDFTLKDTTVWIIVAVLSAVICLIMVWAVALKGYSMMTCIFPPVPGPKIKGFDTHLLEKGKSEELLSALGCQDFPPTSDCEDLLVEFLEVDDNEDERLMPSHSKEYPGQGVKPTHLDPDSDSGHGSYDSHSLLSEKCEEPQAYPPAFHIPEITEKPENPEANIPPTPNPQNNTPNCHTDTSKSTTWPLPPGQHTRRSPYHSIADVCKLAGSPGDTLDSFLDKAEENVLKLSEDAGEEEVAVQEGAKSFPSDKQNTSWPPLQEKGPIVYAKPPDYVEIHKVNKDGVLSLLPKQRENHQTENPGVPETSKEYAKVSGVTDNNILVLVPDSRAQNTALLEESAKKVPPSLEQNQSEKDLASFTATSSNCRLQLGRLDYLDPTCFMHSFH

T2: human PRLR on cells (human, UniProt P16471 25-622)
T2 sequence: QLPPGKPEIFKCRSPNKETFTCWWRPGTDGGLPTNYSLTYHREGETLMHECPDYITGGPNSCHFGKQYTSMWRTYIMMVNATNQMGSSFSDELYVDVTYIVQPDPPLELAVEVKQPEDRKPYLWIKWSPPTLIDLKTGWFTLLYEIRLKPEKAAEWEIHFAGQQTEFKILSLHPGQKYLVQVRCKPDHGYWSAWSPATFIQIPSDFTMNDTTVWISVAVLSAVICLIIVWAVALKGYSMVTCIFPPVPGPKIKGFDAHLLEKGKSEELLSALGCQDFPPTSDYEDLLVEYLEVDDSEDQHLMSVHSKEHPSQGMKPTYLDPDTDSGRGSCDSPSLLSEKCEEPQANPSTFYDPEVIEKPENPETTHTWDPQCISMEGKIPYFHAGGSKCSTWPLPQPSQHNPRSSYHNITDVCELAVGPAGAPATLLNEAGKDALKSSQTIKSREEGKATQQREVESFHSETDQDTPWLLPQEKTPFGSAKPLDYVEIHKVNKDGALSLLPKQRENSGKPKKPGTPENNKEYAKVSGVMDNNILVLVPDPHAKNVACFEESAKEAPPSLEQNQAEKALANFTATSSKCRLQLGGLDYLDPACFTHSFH

T3: human PRLR (Biacore antigen) (human, UniProt P16471 25-234, limits assumed)
T3 construct: The construct injected over captured antibody is not described (a soluble form is likely); also called huPRLR
T3 sequence: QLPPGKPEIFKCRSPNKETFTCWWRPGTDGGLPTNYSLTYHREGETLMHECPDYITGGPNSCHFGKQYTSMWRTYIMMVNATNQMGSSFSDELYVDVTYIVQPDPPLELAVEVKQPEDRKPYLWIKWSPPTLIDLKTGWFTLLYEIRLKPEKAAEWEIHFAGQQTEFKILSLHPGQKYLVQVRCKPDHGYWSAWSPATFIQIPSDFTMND

T4: cyno PRLR (Biacore antigen) (cyno, UniProt A0A2K5WXK1 25-234)
T4 construct: also called cyPRLR
T4 sequence: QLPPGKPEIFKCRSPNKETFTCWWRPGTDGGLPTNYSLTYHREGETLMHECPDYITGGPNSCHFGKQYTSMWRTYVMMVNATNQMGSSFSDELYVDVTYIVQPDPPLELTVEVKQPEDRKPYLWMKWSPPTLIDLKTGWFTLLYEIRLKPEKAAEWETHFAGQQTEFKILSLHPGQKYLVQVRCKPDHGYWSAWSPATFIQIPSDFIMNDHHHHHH

T5: murine PRLR (Biacore antigen) (murine, UniProt Q08501 20-229, limits assumed)
T5 construct: also called muPRLR
T5 sequence (looked up): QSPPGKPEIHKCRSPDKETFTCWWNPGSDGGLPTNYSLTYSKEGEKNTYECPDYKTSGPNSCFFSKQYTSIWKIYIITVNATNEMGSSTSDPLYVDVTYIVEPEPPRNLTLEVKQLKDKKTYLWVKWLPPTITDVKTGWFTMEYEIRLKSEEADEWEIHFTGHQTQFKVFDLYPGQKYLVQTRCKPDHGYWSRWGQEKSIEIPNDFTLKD

B1: Ab6 (antibody, V domains shown)
VH: QVQLQQPGAELVMPGSSVKLSCKASGYTFTTYWMHWVKQRPGQGLEWIGEIDPSDSYSNYNQKFKDKATLTVDKSSSTAYMQLSSLTSEDSAVYYCARNGGLGPAWFSYWGQGTLVTVSA
VL: DIVMTQSQKFMSTTVGDRVSITCKASQYVGTAVAWYQQKPGQSPKLLIYSASNRYTGVPDRFTDSGSGTDFTLTISNLQSEDLADYFCQQYSSYPWTFGGGTKLEIK
notes: murine monoclonal, isotype G1; also called murine Ab6
B2: Ab5 (antibody, V domains shown)
VH: QVQLQQPGAELVRPGTSVKLSCKASGYTFTSFWMHWVKQRPGQGLEWIGVIDPSDTYTNYNQKFKGKATLTVDTSSSTAYMQLSSLTSEDSAVYYCARGDYSNWFTYWGQGTLVTVSA
VL: DVVMTQTPLSLPVSLGDQASISCRSSQRLVHSNGNTYLHWYLQKPGQSPKLLIYKVSNRFSGVPDRFSGSGSGTDFTLKISRVEAEDLGVYFCSQSTHVPWTFGGGTKLEIK
notes: murine monoclonal, isotype G2a; also called murine Ab5
B3: Ab13 (antibody, V domains shown)
VH: QVQLQQPGAELVRPGTSVKLSCKASGYTFTSFWMHWVKQRPGQGLEWIGVIDPSDSHTNYNQKFKGKATLTVNTSSSTAYMHLSSLTSEDSAVYYCARGDYSNWFTYWGQGTLVTVSA
VL: DVVMTQTPFSLPVSLGDQASISCRSSQSLVHSNGNTYLHWYLQKPGQSPKLLIYKVSNRFSGVPDRFSGSGSGTDFTLKISRVEAEDLELYFCSQSTHVPWTFGGGTKLEIK
notes: murine monoclonal, isotype G2a; also called murine Ab13
B4: Ab30 (antibody, human IgG1, kappa, V domains shown)
VH: EVQLVQSGAEVKKPGSSVKVSCKASGYTFTSFWMHWVRQAPGQGLEWIGVIDPSDTYTNYNQKFKGRATLTVDESSSTAYMELSSLRSEDTAVYYCARGDYSNWFTYWGQGTLVTVSS
VL: DVVMTQTPLSLSVTPGQPASISCRSSQRLVHSNGNTYLHWYLQKPGQSPQLLIYKVSNRFSGVPDRFSGSGSGTDFTLKISRVEAEDVGVYFCSQSTHVPWTFGGGTKVEIKR
notes: humanized from Ab5; G1; also called Ab2 HC.1a and Ab2 LC.1a
B5: Ab7 (antibody, V domains shown)
VH: QVQLQQPGAELVMPGTSVKLSCKASGYTFTSYWIHWVKQRPGQGLEWIGEIDPSDSYTNYNQKFKGKATLTVDRSSSTAYMQLSSLTSEDSAVYYCGRSFFTNWFAYWGQGTLVTVSA
VL: DVVMTQTPLSLPVSLGDQASISCRSSQSLVHSNGNTYLHWYLQKPGQSPKLLIYKVSNRFSGVPDRFSGSGSGTDFTLKINRVEAEDLGVYFCSQSTHVPFTFGSGTKLEIK
notes: murine monoclonal, isotype G1; also called murine Ab7
B6: Ab10 (antibody, V domains shown)
VH: EVQLHQSGPELVKPGASVKISCKASGYTFTDYNMHWMKQSHGKSLEWIGYFYPYNGGTGYNQEFKNKATLTVDISSSTAYMELRRLTSEDSAVYYCARGGWGIYYAMDYWGQGTSVTVSS
VL: DIQMTQSPASLSASVGETVTITCRASENIYSYLTWYQQKQGKSPQLLVYNAKTLAEGVPSRFSGSGSGTQFSLKINSLQPEDFGSYHCQHHSVTPLTFGAGTKLELK
notes: murine monoclonal, isotype G2a; also called murine Ab10
B7: Ab11 (antibody, V domains shown)
VH: EVKLVESGGGLVQPGGSLKLSCAASGFTFSDYYMFWVRQTPEKSLEWVAYISNGGGSTYYPDTVKGRFTISRDNAKNTLYLQMSRLKSEDTAMYYCSRQLFYYGSRGAMGYWGQGTSVTVSS
VL: DVLMTQTPLSLPVSLGDQASISCRSSQSIVHSNGNTYLEWYLQKPGQSPKLLIYKVSNRFSGVPDRFSGSGSGTDFTLKISRVEAEDLGVYYCFQGSHVPFTFGSGTKLEIK
notes: murine monoclonal, isotype G1; also called murine Ab11
B8: Ab12 (antibody, V domains shown)
VH: DVQLQESGPGLVKPSQSLSLTCTVTGYSITSDYAWNWIRQFPGNKLEWMGYIGYSGRTSFNPSLKSRISITRDTSKNQFFLQLNSVTTEDTATYYCARGGFAMDYWGQGTSVTVSS
VL: QIVLTQSPGIMSASPGEKVTMTCSASSSVTYMYWYQQKPRSSPKPWIYLTSNLASGVPARFSGSGSGTSYSLTISSMEAEDGATYYCQQWSSTPPLTFGGGTKLELN
notes: murine monoclonal, isotype G2a; reported as PRLR agonist; also called murine Ab12

Columns and labels:
[1] = molecular target: T1, mouse PRLR on Baf3-mPRLR cells; assay: cell-based or functional assay
human PRLR on cells = molecular target: T2, human PRLR on cells; assay: cell-based or functional assay
[2] = molecular target: cyno PRLR on Baf3-cyPRLR cells (cyno); assay: cell-based or functional assay
[3] = molecular target: T3, human PRLR (Biacore antigen); assay: SPR Biacore
Procedure, shortened: (§1)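 Association rate, dissociation rate and dissociation constant were measured by surface plasmon resonance on a Biacore instrument. PRLR antigen was tested at 600 nM, 66.67 nM and 7.41 nM, a 3-point, 9-fold dilution series. Constants came from a 1:1 binding model fit (local Rmax, mass-transport term included) in Biacore T200 Evaluation Software.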

[4] = molecular target: T4, cyno PRLR (Biacore antigen); assay: SPR Biacore
Procedure, shortened: as §1

[5] = molecular target: T5, murine PRLR (Biacore antigen); assay: SPR Biacore
Procedure, shortened: as §1

[6] = molecular target: T3, human PRLR (Biacore antigen); assay: SPR simultaneous binding; PRLR held by surface mAb Ab19
Method: (§2) Running buffer was HBS-EP+ (10 mM Hepes, pH7.4, 150 mM NaCl, 3 mM EDTA, 0.05% surfactant). Assay was performed at 12° C. using Biacore T200 and CM5 sensor chips with anti-human IgG (Pierce) amine-coupled in all 4 flow cells to ˜2000 RU.
(§3) Separate test mAbs were captured in flowcells 2, 3 & 4 (flowcell 1 was reference, no test mAb). All 4 flowcells were then blocked by injection with isotype control mAb at 50 ug/ml. All 4 flowcells were then injected with antigen or buffer only (buffer only is for double referencing, done for each mAb pair individually). All 4 flowcells were then injected with 2nd test mAb at 10 ug/ml. All 4 flowcells were then regenerated with glycine, pH1.5.

[7] = molecular target: T3, human PRLR (Biacore antigen); assay: SPR simultaneous binding; PRLR held by surface mAb Ab40
Method: as §2, §3

| Binder | Baf3-mPRLR proliferation IC50 [1] | Baf3-hPRLR proliferation IC50 (human PRLR on cells) | T47D pPRLR ELISA IC50 (human PRLR on cells) | Baf3-cyPRLR proliferation IC50 [2] | Kd [3] | koff [3] | kon [3] | Kd [4] | koff [4] | kon [4] | Kd [5] | koff [5] | kon [5] | solution mAb binding, % of PRLR binding [6] | solution mAb binding, % of PRLR binding [7] |
| --- | --- | --- | --- | --- | --- | --- | --- | --- | --- | --- | --- | --- | --- | --- | --- |
| B1 | > 30 µg/mL | 0.26 µg/mL | 0.039 µg/mL | 0.44 µg/mL | 0.45 nM | 0.000576 s⁻¹ | 1.28e+06 M⁻¹ s⁻¹ | 0.807 nM | 0.00109 s⁻¹ | 1.36e+06 M⁻¹ s⁻¹ | 635 nM | 0.394 s⁻¹ | 622000 M⁻¹ s⁻¹ | – | – |
| B2 | 1.03 µg/mL | 0.24 µg/mL | 0.038 µg/mL | 0.38 µg/mL | 0.572 nM | 0.000203 s⁻¹ | 355000 M⁻¹ s⁻¹ | 0.7 nM | 0.000235 s⁻¹ | 336000 M⁻¹ s⁻¹ | 14.4 nM | 0.00291 s⁻¹ | 202000 M⁻¹ s⁻¹ | – | – |
| B3 | 4.69 µg/mL | 0.32 µg/mL | 0.047 µg/mL | 0.85 µg/mL | 0.997 nM | 0.000431 s⁻¹ | 433000 M⁻¹ s⁻¹ | – | – | – | – | – | – | – | – |
| B4 | – | 0.14 µg/mL | – | 0.24 µg/mL | 1.29 nM | 0.000437 s⁻¹ | 339000 M⁻¹ s⁻¹ | 1.59 nM | 0.000523 s⁻¹ | 330000 M⁻¹ s⁻¹ | 40 nM | 0.0056 s⁻¹ | 140000 M⁻¹ s⁻¹ | -1% | -2% |
| B5 | 3.55 µg/mL | 0.28 µg/mL | 0.08 µg/mL | 0.3 µg/mL | 0.153 nM | 4.27e-05 s⁻¹ | 280000 M⁻¹ s⁻¹ | 0.127 nM | 3.29e-05 s⁻¹ | 259000 M⁻¹ s⁻¹ | 41.7 nM | 0.0035 s⁻¹ | 84000 M⁻¹ s⁻¹ | – | – |
| B6 | > 30 µg/mL | 3.14 µg/mL | 0.362 µg/mL | > 10 µg/mL | 1.41 nM | 0.000228 s⁻¹ | 161000 M⁻¹ s⁻¹ | – | – | – | – | – | – | – | – |
| B7 | 18.5 µg/mL | 1.11 µg/mL | 0.047 µg/mL | 1.2 µg/mL | 69.2 nM | 0.0211 s⁻¹ | 305000 M⁻¹ s⁻¹ | – | – | – | – | – | – | – | – |
| B8 | > 30 µg/mL | – | 0.538 µg/mL | > 30 µg/mL | 6.6 nM | 0.00186 s⁻¹ | 282000 M⁻¹ s⁻¹ | – | – | – | – | – | – | – | – |
